Earlier results on one substance are cited in PMC6255930.

The data set concerns the target hemopexin (Homo sapiens) (UniProt P02790).
UniProt P02790, sequence (P02790 24-462): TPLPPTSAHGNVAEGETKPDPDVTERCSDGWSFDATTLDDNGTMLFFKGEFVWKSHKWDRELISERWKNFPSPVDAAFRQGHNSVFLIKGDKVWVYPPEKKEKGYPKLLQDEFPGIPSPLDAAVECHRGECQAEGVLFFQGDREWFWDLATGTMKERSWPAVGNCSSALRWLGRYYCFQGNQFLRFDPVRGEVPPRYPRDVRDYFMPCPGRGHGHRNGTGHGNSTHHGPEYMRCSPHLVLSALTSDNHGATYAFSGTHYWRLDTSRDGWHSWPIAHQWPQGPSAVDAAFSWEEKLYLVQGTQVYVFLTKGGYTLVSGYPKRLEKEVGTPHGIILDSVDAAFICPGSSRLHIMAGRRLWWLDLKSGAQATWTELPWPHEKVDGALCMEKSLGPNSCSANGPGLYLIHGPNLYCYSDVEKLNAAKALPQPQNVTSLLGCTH

Turning to LRP1 (from UniProt Q07954), the Kd is 4 nM.

The Kd is the constant that tells how readily two partners part at equilibrium.
